Consider two molecules from article PMC3585358, “Identification and Multidimensional Optimization of an Asymmetric Bispecific IgG Antibody Mimicking the Function of Factor VIII Cofactor Activity” (PLoS ONE, 2013).

In assay [1] the target is T1, human factor IXa (Homo sapiens, UniProt P00740).
T1 construct: also called FIXa; source: bought: Enzyme Research Laboratories (purified human coagulation factors; the source is stated for the enzymatic assay)
As to the kind of experiment: SPR; Biacore T200; anti-FIXa or anti-FX monospecific antibodies captured on MabSelect SuRe Ligand (recombinant Protein A) immobilized on a CM4 chip; natalizumab (human IgG4) on the reference cell; 0, 80, 160, 320, 640 or 1,280 nM human FIXa or FX injected at 30 uL/min; 10 mM HEPES pH 7.4, 150 mM NaCl, 0.05% surfactant P20, 2.5 mM CaCl2. The note with it: both partners purified. On the technique in general: In SPR one partner is held on a chip, and binding of the other changes the refractive index at the surface.

The target of assay [2] is T2, human factor X (Homo sapiens, UniProt P00742).
T2 construct: human coagulation factor X (zymogen), light chain; also called FX; source: bought: Enzyme Research Laboratories (purified human coagulation factors; the source is stated for the enzymatic assay)
T2 sequence (P00742 41-179, chain 1 of 2): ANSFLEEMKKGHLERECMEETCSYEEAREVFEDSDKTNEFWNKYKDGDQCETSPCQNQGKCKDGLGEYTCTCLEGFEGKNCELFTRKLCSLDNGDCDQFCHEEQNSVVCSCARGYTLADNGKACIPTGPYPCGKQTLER
T2 sequence (P00742 183-488, chain 2 of 2): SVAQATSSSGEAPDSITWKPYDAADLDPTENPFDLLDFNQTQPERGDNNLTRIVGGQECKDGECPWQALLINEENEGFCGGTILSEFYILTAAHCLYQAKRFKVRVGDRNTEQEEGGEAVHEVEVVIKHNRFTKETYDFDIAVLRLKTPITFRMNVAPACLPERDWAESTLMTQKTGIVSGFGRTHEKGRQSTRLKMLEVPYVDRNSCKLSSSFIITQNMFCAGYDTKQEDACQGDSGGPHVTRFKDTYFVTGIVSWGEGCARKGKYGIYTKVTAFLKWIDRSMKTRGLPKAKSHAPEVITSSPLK
Described as above. The note with it: both partners purified.

T1 sequence (P00740 47-191, chain 1 of 2): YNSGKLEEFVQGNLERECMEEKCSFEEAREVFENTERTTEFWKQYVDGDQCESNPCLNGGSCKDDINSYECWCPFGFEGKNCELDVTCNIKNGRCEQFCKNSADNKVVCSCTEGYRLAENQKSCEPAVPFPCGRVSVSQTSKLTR
T1 sequence (P00740 227-461, chain 2 of 2): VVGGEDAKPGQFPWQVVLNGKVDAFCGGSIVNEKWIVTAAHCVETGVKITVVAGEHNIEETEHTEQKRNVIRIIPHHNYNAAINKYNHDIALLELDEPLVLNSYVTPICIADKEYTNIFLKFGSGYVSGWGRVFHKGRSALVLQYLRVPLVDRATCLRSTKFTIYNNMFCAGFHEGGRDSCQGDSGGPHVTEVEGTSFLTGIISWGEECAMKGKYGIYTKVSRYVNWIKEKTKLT

B1: anti-FIXa monospecific IgG of hBS910 (anti-FIXa heavy chain and common light chain) (antibody, V domains shown)
VH: QVQLVESGGGLVQPGGSLRLSCAASGFTFSYYDIQWVRQAPGKGLEWVSSISPSGQSTYYRREVKGRFTISRDNSKNTLYLQMNSLRAEDTAVYYCARRTGREYGGGWYFDYWGQGTLVTVSS
VL: DIQMTQSPSSLSASVGDRVTITCKASRNIERQLAWYQQKPGQAPELLIYQASRKESGVPDRFSGSRYGTDFTLTISSLQPEDIATYYCQQYSDPPLTFGGGTKVEIK
notes: as the anti-FIXa heavy chain of m1; as the common light chain of m1; The SPR methods say that monospecific antibodies were captured; also called monospecific anti-FIXa antibody; anti-FIXa homodimeric antibody; source: HEK293 cells, transfected; filtrated culture supernatants or Protein A purified antibodies; copies: 2 + 2
As for B1, the binding result in assay [1] is “binds”.

B2: anti-FX monospecific IgG of hBS910 (anti-FX heavy chain and common light chain) (antibody, V domains shown)
VH: QVQLVQSGSELKKPGASVKVSCKASGYTFTDNNMDWVRQAPGQGLEWMGDINTRSGGSIYNEEFQDRVIMTVDKSTDTAYMELSSLRSEDTATYHCARRKSYGYYLDEWGEGTLVTVSS
VL: DIQMTQSPSSLSASVGDRVTITCKASRNIERQLAWYQQKPGQAPELLIYQASRKESGVPDRFSGSRYGTDFTLTISSLQPEDIATYYCQQYSDPPLTFGGGTKVEIK
notes: as the anti-FX heavy chain of m1; as the common light chain of m1; The SPR methods say that monospecific antibodies were captured; also called monospecific anti-FX antibody; anti-FX homodimeric antibody; source: HEK293 cells, transfected; filtrated culture supernatants or Protein A purified antibodies; copies: 2 + 2
In the case of B2, the binding result in assay [2] is “binds”.
